Results as given in the supplement of paper PMC9170038.

Assays:
MS2 coat protein [1] = assay: apparent KD of MS2 coat protein; designed switch direction (-1 OFF switch, 1 ON switch): 1; higher = weaker reporter binding
Outline: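 On Illumina chips, designed RNA switches with common flanks were made by stalled E. coli RNA polymerase. Titrations with SNAP-549-labelled MS2 coat protein, doubling from 0.7 or 1.5 nM to 3 µM, were done with no input, with 200 uM small-molecule ligand, or with an oligonucleotide input. Apparent KD is the median per design over clusters, from curve fits of normalised cluster fluorescence.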

MS2 coat protein [2] = assay: apparent KD of MS2 coat protein; higher = weaker reporter binding; details: Eterna round: R107
Outline: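 Titrations with SNAP-549-labelled MS2 coat protein ran in twofold steps from 0.7 or 1.5 nM to 3 µM, each step taking 0.8–1.5 h at the start and 10–20 min toward the end. The targets were designed RNA switches transcribed on-chip from Illumina sequencing clusters, held in 100 mM Tris-HCl pH 7.5, 80 mM KCl, 4 mM MgCl2, without or with constant ligand. Apparent KD was taken per design as the median of normalised cluster binding-curve fits.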

[3] = input ligand: microRNA oligo, concentration not stated
[4] = Eterna round: R95, input ligand: FMN 200 uM
[5] = Eterna round: R95, input ligand: microRNA oligo, concentration not stated
[6] = Eterna round: R95, input ligand: none
[7] = input ligand: theophylline 20 uM
[8] = input ligand: theophylline 2 mM
[9] = input ligand: tryptophan 2.4 mM

Row | Sequence | apparent KD of MS2 coat protein (MS2 coat protein [2]; input ligand: arginine 13.2 mM) | apparent KD of MS2 coat protein (MS2 coat protein [2]; [7]) | apparent KD of MS2 coat protein (MS2 coat protein [2]; [8]) | apparent KD of MS2 coat protein (MS2 coat protein [2]; [9]) | other results
1 | AACAUGAGGAUCACCCAUGUCAGGUCGCCAACCUACAUGAGGAAGGAUAUAGCCUCGAAUAUUGGCUAGAAGGUCCUCAUGAAU [Tieson] (Eterna round: R96, puzzle: Same State NG 3) | – | – | – | – | apparent KD of MS2 coat protein (MS2 coat protein [1]; input ligand: FMN 200 uM): 320 nM; apparent KD of MS2 coat protein (MS2 coat protein [1]; [3]): 16.4 nM; apparent KD of MS2 coat protein (MS2 coat protein [1]; input ligand: none): 39.9 nM
2 | AGUCCAGCCUGAGCUGGACAAAAGCAUGUACAUGAGGAUCACCCAUGUUCAUGUACAAGCUUUUUGCUCGUCUGAAU [Mat - hsa-mir-208a - Mod of JL - 47] (puzzle: Sensor for hsa-mir-208a) | – | – | – | – | apparent KD of MS2 coat protein (MS2 coat protein [1]; [4]): 709 nM; apparent KD of MS2 coat protein (MS2 coat protein [1]; [5]): 19.9 nM; apparent KD of MS2 coat protein (MS2 coat protein [1]; [6]): 874 nM
3 | GGAGCCGGCACUGAGGAUAUUCAUAUUUAAACAUGAGGAUCACCCAUGUAGGCCAGAAGGCCUUGGGAGAAGGCAGGUCGGCUCU [salish99_ss2_r3_077] (puzzle: Same State 2) | – | – | – | – | apparent KD of MS2 coat protein (MS2 coat protein [1]; [4]): 20.8 nM; apparent KD of MS2 coat protein (MS2 coat protein [1]; [5]): 247 nM; apparent KD of MS2 coat protein (MS2 coat protein [1]; [6]): 434 nM
4 | UCAAGCGAGAGGCUCGUCUUAUGUUUGGUACAUGAGGAUCACCCAUGUUAGGGACGAUUUAGUUAGAUGGAAUGGAG [JR_SHM208A_Sub034] (puzzle: Sensor for hsa-mir-208a) | – | – | – | – | apparent KD of MS2 coat protein (MS2 coat protein [1]; [4]): 57.3 nM; apparent KD of MS2 coat protein (MS2 coat protein [1]; [5]): 148 nM; apparent KD of MS2 coat protein (MS2 coat protein [1]; [6]): 69.6 nM
5 | GCUAGGAAAGAAGCCAACAUGAGGAUCACCCAUGUAUGUUGGUAGGAUAUCGUAUGCAAAGCAUACGAGAAGGGCUAACCUAGC [Mat - Same State NG 3 - JL Mod - D74] (Eterna round: R96, puzzle: Same State NG 3) | – | – | – | – | apparent KD of MS2 coat protein (MS2 coat protein [1]; input ligand: FMN 200 uM): 127 nM; apparent KD of MS2 coat protein (MS2 coat protein [1]; [3]): 127 nM; apparent KD of MS2 coat protein (MS2 coat protein [1]; input ligand: none): 153 nM
6 | GCUACCAUUGAAGCCAACAUGAGGAUCACCCAUGUAUGUUGGCAGGAUAUCGAUUGCUUUGCGAUCGAGAAGGGCUAAGGUAGC [JL SSNG3 1.29] (Eterna round: R96, puzzle: Same State NG 3) | – | – | – | – | apparent KD of MS2 coat protein (MS2 coat protein [1]; input ligand: FMN 200 uM): 120 nM; apparent KD of MS2 coat protein (MS2 coat protein [1]; [3]): 153 nM; apparent KD of MS2 coat protein (MS2 coat protein [1]; input ligand: none): 171 nM
7 | GGAGCCGGCACCGAGGAUAUUUAUAUUAAAACAUGAGGAUCACCCAUGUAGGCCAGAAGGCCUUGGGAGAAGGCGGAUCGGCUCG [Xeonanis - 5] (puzzle: Same State 2) | – | – | – | – | apparent KD of MS2 coat protein (MS2 coat protein [1]; [4]): 16.4 nM; apparent KD of MS2 coat protein (MS2 coat protein [1]; [5]): 75.7 nM; apparent KD of MS2 coat protein (MS2 coat protein [1]; [6]): 79.6 nM
8 | GUGGUCAGACAUGAGGAUCACCCAUGUGGAAUAAAUAACAGACAGGAUAUCAAAUAUAGGAUAUAUGAGAAGGGUCGAUUGGUG (Eterna round: R96, puzzle: Same State NG 3) | – | – | – | – | apparent KD of MS2 coat protein (MS2 coat protein [1]; [3]): 81 nM
9 | GGUAGGUUACUACCAAACAUGAGGAUCACCCAUGUAAAUGGGAAGGAUAUGGUACCUAUUUGGUACCAGAAGGUCCAAAUAAUU [Mat - Same State NG 3 - JL Mod - D95] (Eterna round: R96, puzzle: Same State NG 3) | – | – | – | – | apparent KD of MS2 coat protein (MS2 coat protein [1]; input ligand: FMN 200 uM): 180 nM; apparent KD of MS2 coat protein (MS2 coat protein [1]; [3]): 327 nM; apparent KD of MS2 coat protein (MS2 coat protein [1]; input ligand: none): 1410 nM
10 | GCUACCAUUGAUGCCUACAUGAGGAUCACCCAUGUAUGUAGGCAGGAUAUCGAUUGCUUUGCGAUCGAGAAGGGCUUAGGUAGC [JL SSNG3 1.31] (Eterna round: R96, puzzle: Same State NG 3) | – | – | – | – | apparent KD of MS2 coat protein (MS2 coat protein [1]; input ligand: FMN 200 uM): 52.4 nM; apparent KD of MS2 coat protein (MS2 coat protein [1]; [3]): 139 nM; apparent KD of MS2 coat protein (MS2 coat protein [1]; input ligand: none): 183 nM
11 | AAAAUCCUACCUGAGGAUCACCCGGGUGAAGGAGCGCCCGAAAGGGCAGGUAGGUCGCACCUGAGGAUCACCCUGGUAACCUAAA [ArgEX 12 #DoubleMS2 #OpenEnded #AlternativeMS2] | 41.7 nM | 187 nM | 454 nM | 159 nM | apparent KD of MS2 coat protein (MS2 coat protein [2]; input ligand: none): 179 nM
12 | AGAGCAUUGACGGCCGCCACUCAUGUCACAUGAGGAUCACCCAUGUGAUGGGUGAUAGCCCGGUCGAGGACCGGGUCAAUGCUCA [Omei Tryp SS B v5] | 14.3 nM | 29.7 nM | 20.6 nM | – | –
13 | AAUGUAUUCCACAUGAGGAUCACCCAUGUGCGAGGACCGGUACGGCCGCCACUCGGUGUUGGGAUCAGUUCUGAAUACAUUAAUG [XTryp A #24] | 19.1 nM | 19.2 nM | 20.5 nM | – | –
14 | GGUUAGGUUUUUGAUACCAGCUAUUGGUGUCAUCUGAGGAUCACCCAGGUCUUGUGUUUUAGCCCUUGGCAGCAAAAGUUUAGUC [SSTheo B #28] | 72.6 nM | 118 nM | 94.1 nM | 108 nM | apparent KD of MS2 coat protein (MS2 coat protein [2]; input ligand: none): 88.4 nM
15 | GCACGACAUGAGGAUCACCCAUGUGCAGAUACCAGUAAUGUAUGUUACCCUUGGCAGCUGAGUAGGUCUGGAGGGCUAUAGGUAA [Same State Theophylline A GF12] | 10.6 nM | 18 nM | – | 13.7 nM | –
16 | AAUAACAUGAGGAUCACCCAUGUAAGUAAACGAGGACCGGUACGGCCGCCACUCGAAUAAAUAAAGUACCGGUAAGAUCCAUAGA [Default title] | 17.9 nM | 25.9 nM | 22.5 nM | – | –
17 | CCCUGGGUGGGAAGGAGCGCAUAUUCAACAUGAGGAUCACCCAUGUACAGACGUGAGUCAUUGCAGGUAGGUCGCCCACCCAGGG [SS-ArgB21] | 12.9 nM | 20.4 nM | 14.8 nM | 15.5 nM | apparent KD of MS2 coat protein (MS2 coat protein [2]; input ligand: none): 15.7 nM

Row | Sequence | apparent KD of MS2 coat protein (MS2 coat protein [2]; input ligand: arginine 13.2 mM) | apparent KD of MS2 coat protein (MS2 coat protein [2]; [7]) | apparent KD of MS2 coat protein (MS2 coat protein [2]; [8]) | apparent KD of MS2 coat protein (MS2 coat protein [2]; [9]) | other results
18 | GCGUGGUCUGCGGCCGCCACUCAAGGAGCUACAUAGCUCCUAGACAUGAGGAUCACCCAUGUCGCGAGGACCGGGUAGAUUCUCC [Same State Typptophan B GF10] | 40.2 nM | 134 nM | 120 nM | – | –
19 | GAGUAGAGGACGGCCGCCACUAAACAUGAGGAUCACCCAUGUCGUGAUCCGUUACCUAGGGUAGAUAGGACCGGGUCAUGUAGUC [Exclusion Tryptophan B GF 17] | 47.7 nM | 65.8 nM | 84.7 nM | – | –
20 | AACAUGAGGAUCUUCCUUAAGUGAACUGAAGGAGCGCCAGAUAUGGCAGGUAGGUCGCAGCGAACAUGAGGAUCACCCAUGUUAA [Arg A Ex t3] | 38.1 nM | 33.1 nM | 56 nM | 53.7 nM | apparent KD of MS2 coat protein (MS2 coat protein [2]; input ligand: none): 29.4 nM
21 | CCCAACAGUGAUGCCGGUGUUGGUGGUGAUACCAGCGUCUUAUGGCGCCCUUGGCAGCACCAACAUGAGGAUCACCCAUGUGAAA [Beenerveor] | 19.8 nM | 113 nM | – | 36.9 nM | –
22 | GAACAUGAGGAUCACCCAUGUGAGAAUGAUACCAGUAGAAGAAGAUGCCCUUGGCAGCGUGCGUGAGGAUCACCCAUGUAGGAGG [e-theoA-0] | 30 nM | 34.1 nM | – | 25.9 nM | –
23 | UGCACCAUAAUCAUGUUGGUGCUAGGUGAUACCAGCAUCGAAAGAUGCCCUUGGCAGCACCAACAUGAGGAUCACCCAUGUAAUA [(MT)''-(M)'-(T')-(Theo)-(Ms2)_Design1/22_3] | 60.1 nM | 351 nM | – | 57.9 nM | –
24 | GCUAUGGCUAGAAGGAGCGUGAAUUUCAGAAAACAUGAGGAUCACCCAUGUAAGGAUAUGACACAGGUAGGUCGCUAGCCAUAGC [SSAB NP+V+V2 #19] | 9.88 nM | 10.5 nM | 12.5 nM | 10.8 nM | apparent KD of MS2 coat protein (MS2 coat protein [2]; input ligand: none): 10.8 nM
25 | CACAUGAGGAUCACCCAUGUCUGAACUGAAGGAGCGCUAAACAAGGCAGGUAGGUCGCGGAAUUUUGUGUGCAUAUGCAUAUGGG [9.N] | 21.6 nM | 36.3 nM | 26.9 nM | 24.8 nM | apparent KD of MS2 coat protein (MS2 coat protein [2]; input ligand: none): 24.5 nM
26 | GCACCAGGUACGGAUACCAGCUGCCAUAGUUACAUGAGGAUCACCCAUGUGAUCUAUUGUAGCCCUUGGCAGCUGUACCUGGUGC [SSThB NP+V+V2 #5 Same Structure] | 71.2 nM | 398 nM | – | 46.8 nM | –
27 | CAGAGCUACCGGGAUACCAGAAAUGGUAUUCCUUAAUUUCUUACAUGAGGAUCACCCAUGUUCCCUUGGCAGCUUGGUAGCUCUG [ETHB #8] | 48.6 nM | 107 nM | – | 83.7 nM | –
28 | AUAACAUGAGGAUCACCCAUGUAGAGUGAUACCAGACUACGUAAUGUCCCUUGGCAGCACAAGUAAAGUUACGAAUAUUGAUAGA [JR_SSTheophyA_Sub003] | 123 nM | 198 nM | – | 143 nM | –
29 | GAAGCUCGCGAUGAUACCAGCUCGACUGAUAACAUGAGGAUCACCCAUGUUGUGCGCCCUAGCCCUUGGCAGCAUGACAUAUUCG [theeternabot_sameState_MS2_Theo_B_46] | 47.5 nM | 126 nM | – | 97.8 nM | –
30 | CGAGUAAGAACAAUCGAAUAACGGUUUUCGCGAGGACCGGUACGGCCGCCACUCGUGUGAUAUCACACAUGAGGAUCACCCAUGU [3'end-1] | 61.3 nM | 96.7 nM | 101 nM | – | –
31 | AACAGUUGGUCGGCCGCCACUACAUGAGGAUCACCCAUGUAGCGCGUUCUGCUCCAGGGCUCAUCUAGGACCGGGACACGAGUGU [Raa] | 12.2 nM | 21.4 nM | 14.5 nM | – | –
32 | AAUAUAAUAGACUCGUUUUAGUAUUUGGAACGAGGACCGGUACGGCCGCCACUCGUGAUUUACAUGAGGAUCACCCAUGUUAGCA [JR_SSTryptoA_Sub003] | 15.5 nM | 18.4 nM | 17.5 nM | – | –
33 | AAGACCAGGAGGUGAUCCUAACUGGUCCAACGAGGACCGGUACGGCCGCCACUCGAAUAAACAUGAGGAUCACCCAUGUAAUAAU [T''-M-T'-T-MS2] | 58.7 nM | 101 nM | 90.1 nM | – | –
